Results reported in PMC11423142, “Clec7a Worsens Long‐Term Outcomes after Ischemic Stroke by Aggravating Microglia‐Mediated Synapse Elimination” (Advanced Science, 2024).

Biological target: T1, purified human Clec7a protein (R&D Systems Cat. 1859-DC-050) (human, UniProt Q9BXN2 66-247)
T1 construct: Clec7a, human, bought recombinant protein; source: bought: R&D Systems (Cat. 1859-DC-050)
T1 sequence (looked up): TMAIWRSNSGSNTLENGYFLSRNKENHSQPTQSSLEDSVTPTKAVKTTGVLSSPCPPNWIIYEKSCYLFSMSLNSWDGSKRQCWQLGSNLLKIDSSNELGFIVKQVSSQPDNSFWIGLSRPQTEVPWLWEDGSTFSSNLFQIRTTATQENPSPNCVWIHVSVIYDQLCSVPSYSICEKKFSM
Assay: MST; Monolith NT.115, 20 °C, 20 mM HEPES pH 8.0, 150 mM NaCl; Clec7a constant at 50 nM, MD2 varied from 10 µM to 1.2 nM; n = 3
Settings: both partners purified

Kd: 2960 nM
B1: human MD2 protein (R&D Systems Cat. 1787-MD) (ligand, UniProt Q9Y6Y9 19-160, looked up)
chain: QKQYWVCNSSDASISYTYCDKMQYPISINVNPCIELKRSKGLLHIFYIPRRDLKQLYFNLYITVNTMNLPKRKEVICRGSDDDYSFCRALKGETVNTTISFSFKGIKFSKGKYKCVVEAISGSPEEMLFCLEFVILHQPNSN
notes: MD2 (lymphocyte antigen 96), human, bought recombinant protein; source: bought: R&D Systems (Cat. 1787-MD)
